A short description of series [1]: Microtiter hyaluronidase activity assay with biotinylated-hyaluronic acid. The series is classed as biochemical. The conditions noted are these: Table 6, 72 hour post transfection supernatant.
In series [2] the test system is CHO-S cells. In words: Western blot analysis of PH20 expression in media and cells after transient expression. The format is cell-based, Chinese Hamster. The settings on record: media versus cells. The gist of the method: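 PH20 expression and solubility were judged by anti-PH20 Western blot of non-reduced media and cell fractions, with expression shown by a ~66 kDa band. Samples came from CHO-S cells transiently transfected (GeneJuice) with mutant PH20-HZ24 DNA and cultured 48-72 h. GPI-anchored mutants were cleaved with PI-PLC to release soluble protein.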

B1: SPAM1-QIFY: C-terminally truncated human PH20, precursor 482 aa (SEQ ID NO:18), mature 447 aa (SEQ ID NO:70) (protein, listed as Homo sapiens)
chain 1: MGVLKFKHIFFRSFVKSSGVSQIVFTFLLIPCCLTLNFRAPPVIPNVPFLWAWNAPSEFCLGKFDEPLDMSLFSFIGSPRINATGQGVTIFYVDRLGYYPYIDSITGVTVNGGIPQKISLQDHLDKAKKDITFYMPVDNLGMAVIDWEEWRPTWARNWKPKDVYKNRSIELVQQQNVQLSLTEATEKAKQEFEKAGKDFLVETIKLGKLLRPNHLWGYYLFPDCYNHHYKKPGYNGSCFNVEIKRNDDLSWLWNESTALYPSIYLNTQQSPVAATLYVRNRVREAIRVSKIPDAKSPLPVFAYTRIVFTDQVLKFLSQDELVYTFGETVALGASGIVIWGTLSIMRSMKSCLLLDNYMETILNPYIINVTLAAKMCSQVLCQEQGVCIRKNWNSSDYLHLNPDNFAIQLEKGGKFTVRGKPTLEDLEQFSEKFYCSCYSTLSCKEKADVKDTDAVDVCIADGVCIDAFLKPPMETEEPQIFY
chain 2: LNFRAPPVIPNVPFLWAWNAPSEFCLGKFDEPLDMSLFSFIGSPRINATGQGVTIFYVDRLGYYPYIDSITGVTVNGGIPQKISLQDHLDKAKKDITFYMPVDNLGMAVIDWEEWRPTWARNWKPKDVYKNRSIELVQQQNVQLSLTEATEKAKQEFEKAGKDFLVETIKLGKLLRPNHLWGYYLFPDCYNHHYKKPGYNGSCFNVEIKRNDDLSWLWNESTALYPSIYLNTQQSPVAATLYVRNRVREAIRVSKIPDAKSPLPVFAYTRIVFTDQVLKFLSQDELVYTFGETVALGASGIVIWGTLSIMRSMKSCLLLDNYMETILNPYIINVTLAAKMCSQVLCQEQGVCIRKNWNSSDYLHLNPDNFAIQLEKGGKFTVRGKPTLEDLEQFSEKFYCSCYSTLSCKEKADVKDTDAVDVCIADGVCIDAFLKPPMETEEPQIFY
modifications: HuPH20 precursor 1-482; Mature HuPH20 36-482
For the molecule B1, in series [1], the “pH 5.5 Activity” value is on record as 1.647 Units/ml and the “pH 7.4 Activity” value is on record as 2.032 Units/ml. Moreover, the “Expressed in Media” value in series [2] is reported as “YES”.

B2: SPAM1-EEPQ: C-terminally truncated human PH20, precursor 479 aa (SEQ ID NO:21), mature 444 aa (SEQ ID NO:73) (protein, listed as Homo sapiens)
chain 1: MGVLKFKHIFFRSFVKSSGVSQIVFTFLLIPCCLTLNFRAPPVIPNVPFLWAWNAPSEFCLGKFDEPLDMSLFSFIGSPRINATGQGVTIFYVDRLGYYPYIDSITGVTVNGGIPQKISLQDHLDKAKKDITFYMPVDNLGMAVIDWEEWRPTWARNWKPKDVYKNRSIELVQQQNVQLSLTEATEKAKQEFEKAGKDFLVETIKLGKLLRPNHLWGYYLFPDCYNHHYKKPGYNGSCFNVEIKRNDDLSWLWNESTALYPSIYLNTQQSPVAATLYVRNRVREAIRVSKIPDAKSPLPVFAYTRIVFTDQVLKFLSQDELVYTFGETVALGASGIVIWGTLSIMRSMKSCLLLDNYMETILNPYIINVTLAAKMCSQVLCQEQGVCIRKNWNSSDYLHLNPDNFAIQLEKGGKFTVRGKPTLEDLEQFSEKFYCSCYSTLSCKEKADVKDTDAVDVCIADGVCIDAFLKPPMETEEPQ
chain 2: B2 chain 1
modifications: HuPH20 precursor 1-479; Mature HuPH20 36-479
Take B2: in series [1], the “pH 5.5 Activity” value is given as 2.0745 Units/ml and the “pH 7.4 Activity” value turned out to be 1.917 Units/ml. The “Expressed in Media” value in series [2] was “YES”.

B3: SPAM1-EPQI: C-terminally truncated human PH20, precursor 480 aa (SEQ ID NO:20), mature 445 aa (SEQ ID NO:72) (protein, listed as Homo sapiens)
chain 1: MGVLKFKHIFFRSFVKSSGVSQIVFTFLLIPCCLTLNFRAPPVIPNVPFLWAWNAPSEFCLGKFDEPLDMSLFSFIGSPRINATGQGVTIFYVDRLGYYPYIDSITGVTVNGGIPQKISLQDHLDKAKKDITFYMPVDNLGMAVIDWEEWRPTWARNWKPKDVYKNRSIELVQQQNVQLSLTEATEKAKQEFEKAGKDFLVETIKLGKLLRPNHLWGYYLFPDCYNHHYKKPGYNGSCFNVEIKRNDDLSWLWNESTALYPSIYLNTQQSPVAATLYVRNRVREAIRVSKIPDAKSPLPVFAYTRIVFTDQVLKFLSQDELVYTFGETVALGASGIVIWGTLSIMRSMKSCLLLDNYMETILNPYIINVTLAAKMCSQVLCQEQGVCIRKNWNSSDYLHLNPDNFAIQLEKGGKFTVRGKPTLEDLEQFSEKFYCSCYSTLSCKEKADVKDTDAVDVCIADGVCIDAFLKPPMETEEPQI
chain 2: LNFRAPPVIPNVPFLWAWNAPSEFCLGKFDEPLDMSLFSFIGSPRINATGQGVTIFYVDRLGYYPYIDSITGVTVNGGIPQKISLQDHLDKAKKDITFYMPVDNLGMAVIDWEEWRPTWARNWKPKDVYKNRSIELVQQQNVQLSLTEATEKAKQEFEKAGKDFLVETIKLGKLLRPNHLWGYYLFPDCYNHHYKKPGYNGSCFNVEIKRNDDLSWLWNESTALYPSIYLNTQQSPVAATLYVRNRVREAIRVSKIPDAKSPLPVFAYTRIVFTDQVLKFLSQDELVYTFGETVALGASGIVIWGTLSIMRSMKSCLLLDNYMETILNPYIINVTLAAKMCSQVLCQEQGVCIRKNWNSSDYLHLNPDNFAIQLEKGGKFTVRGKPTLEDLEQFSEKFYCSCYSTLSCKEKADVKDTDAVDVCIADGVCIDAFLKPPMETEEPQI
modifications: HuPH20 precursor 1-480; Mature HuPH20 36-480
With B3, in series [1], the “pH 5.5 Activity” value was determined as 1.6425 Units/ml and the “pH 7.4 Activity” value was 2.1825 Units/ml. Further, the “Expressed in Media” value in series [2] is “YES”.

B4: SPAM1-PQIF: C-terminally truncated human PH20, precursor 481 aa (SEQ ID NO:19), mature 446 aa (SEQ ID NO:71) (protein, listed as Homo sapiens)
chain 1: MGVLKFKHIFFRSFVKSSGVSQIVFTFLLIPCCLTLNFRAPPVIPNVPFLWAWNAPSEFCLGKFDEPLDMSLFSFIGSPRINATGQGVTIFYVDRLGYYPYIDSITGVTVNGGIPQKISLQDHLDKAKKDITFYMPVDNLGMAVIDWEEWRPTWARNWKPKDVYKNRSIELVQQQNVQLSLTEATEKAKQEFEKAGKDFLVETIKLGKLLRPNHLWGYYLFPDCYNHHYKKPGYNGSCFNVEIKRNDDLSWLWNESTALYPSIYLNTQQSPVAATLYVRNRVREAIRVSKIPDAKSPLPVFAYTRIVFTDQVLKFLSQDELVYTFGETVALGASGIVIWGTLSIMRSMKSCLLLDNYMETILNPYIINVTLAAKMCSQVLCQEQGVCIRKNWNSSDYLHLNPDNFAIQLEKGGKFTVRGKPTLEDLEQFSEKFYCSCYSTLSCKEKADVKDTDAVDVCIADGVCIDAFLKPPMETEEPQIF
chain 2: LNFRAPPVIPNVPFLWAWNAPSEFCLGKFDEPLDMSLFSFIGSPRINATGQGVTIFYVDRLGYYPYIDSITGVTVNGGIPQKISLQDHLDKAKKDITFYMPVDNLGMAVIDWEEWRPTWARNWKPKDVYKNRSIELVQQQNVQLSLTEATEKAKQEFEKAGKDFLVETIKLGKLLRPNHLWGYYLFPDCYNHHYKKPGYNGSCFNVEIKRNDDLSWLWNESTALYPSIYLNTQQSPVAATLYVRNRVREAIRVSKIPDAKSPLPVFAYTRIVFTDQVLKFLSQDELVYTFGETVALGASGIVIWGTLSIMRSMKSCLLLDNYMETILNPYIINVTLAAKMCSQVLCQEQGVCIRKNWNSSDYLHLNPDNFAIQLEKGGKFTVRGKPTLEDLEQFSEKFYCSCYSTLSCKEKADVKDTDAVDVCIADGVCIDAFLKPPMETEEPQIF
modifications: HuPH20 precursor 1-481; Mature HuPH20 36-481
With B4, in series [1], the “pH 5.5 Activity” value stood at 1.701 Units/ml and the “pH 7.4 Activity” value is recorded as 1.818 Units/ml. Further, in series [2], the “Expressed in Media” value is reported as “YES”.

B5: SPAM1-IFYN: C-terminally truncated human PH20, precursor 483 aa (SEQ ID NO:17), mature 448 aa (SEQ ID NO:69) (protein, listed as Homo sapiens)
chain 1: MGVLKFKHIFFRSFVKSSGVSQIVFTFLLIPCCLTLNFRAPPVIPNVPFLWAWNAPSEFCLGKFDEPLDMSLFSFIGSPRINATGQGVTIFYVDRLGYYPYIDSITGVTVNGGIPQKISLQDHLDKAKKDITFYMPVDNLGMAVIDWEEWRPTWARNWKPKDVYKNRSIELVQQQNVQLSLTEATEKAKQEFEKAGKDFLVETIKLGKLLRPNHLWGYYLFPDCYNHHYKKPGYNGSCFNVEIKRNDDLSWLWNESTALYPSIYLNTQQSPVAATLYVRNRVREAIRVSKIPDAKSPLPVFAYTRIVFTDQVLKFLSQDELVYTFGETVALGASGIVIWGTLSIMRSMKSCLLLDNYMETILNPYIINVTLAAKMCSQVLCQEQGVCIRKNWNSSDYLHLNPDNFAIQLEKGGKFTVRGKPTLEDLEQFSEKFYCSCYSTLSCKEKADVKDTDAVDVCIADGVCIDAFLKPPMETEEPQIFYN
chain 2: LNFRAPPVIPNVPFLWAWNAPSEFCLGKFDEPLDMSLFSFIGSPRINATGQGVTIFYVDRLGYYPYIDSITGVTVNGGIPQKISLQDHLDKAKKDITFYMPVDNLGMAVIDWEEWRPTWARNWKPKDVYKNRSIELVQQQNVQLSLTEATEKAKQEFEKAGKDFLVETIKLGKLLRPNHLWGYYLFPDCYNHHYKKPGYNGSCFNVEIKRNDDLSWLWNESTALYPSIYLNTQQSPVAATLYVRNRVREAIRVSKIPDAKSPLPVFAYTRIVFTDQVLKFLSQDELVYTFGETVALGASGIVIWGTLSIMRSMKSCLLLDNYMETILNPYIINVTLAAKMCSQVLCQEQGVCIRKNWNSSDYLHLNPDNFAIQLEKGGKFTVRGKPTLEDLEQFSEKFYCSCYSTLSCKEKADVKDTDAVDVCIADGVCIDAFLKPPMETEEPQIFYN
modifications: HuPH20 precursor 1-483; Mature HuPH20 36-483
With B5, in series [1], the “pH 5.5 Activity” value worked out at 2.3085 Units/ml and the “pH 7.4 Activity” value is reported as 2.45 Units/ml. Besides, the “Expressed in Media” value in series [2] is on record as “YES”.

The record behind these values is patent publication US9284543B2, “Neutral active soluble truncated PH20 polypeptides and uses thereof” (Halozyme, Inc., priority 2008, dated 2016).
